One may read the EC50 as the concentration at which the effect is half-maximal. A higher EC50 goes with weaker potency.

The chains are these.
B1: 5T4 9 mer peptide 55 (GAFARRPPL) (peptide)
peptide: GAFARRPPL
B2: 5T4 9 mer peptide 113 (LPRDVLAQL) (peptide)
peptide: LPRDVLAQL
B3: 5T4 9 mer peptide 71 (LPSLRQLDL) (peptide)
peptide: LPSLRQLDL
B4: 5T4 9 mer peptide 117 (LPSLRHLDL) (peptide)
peptide: LPSLRHLDL
B5: 5T4 9 mer peptide 23 (APFLASAVS) (peptide)
peptide: APFLASAVS
B6: 5T4 9 mer peptide 58 (PPLAELAAL) (peptide)
peptide: PPLAELAAL
B7: 5T4 9 mer peptide 59 (LAELAALNL) (peptide)
peptide: LAELAALNL
B8: 5T4 9 mer peptide 101 (AALLAGRAL) (peptide)
peptide: AALLAGRAL
B9: 5T4 9 mer peptide 17 (SPTSSASSF) (peptide)
peptide: SPTSSASSF
B10: 5T4 9 mer peptide 45 (LPAYVRNLF) (peptide)
peptide: LPAYVRNLF
B11: 5T4 9 mer peptide 21 (FSSSAPFLA) (peptide)
peptide: FSSSAPFLA
B12: 5T4 9-mer peptide 163 (peptide)
peptide: YPEKMRNRV
B13: 5T4 9-mer peptide 182 (peptide)
peptide: LALIGAIFL
B14: 5T4 9-mer peptide 151 (peptide)
peptide: HMADMVTWL
B15: 5T4 9-mer peptide 183 (peptide)
peptide: LIGAIFLLV
B16: 5T4 9-mer peptide 179 (peptide)
peptide: VFLGIVLAL
notes: also called VFLGIVLAL
B17: 5T4 9-mer peptide 174 (peptide)
peptide: ILPPSLQTS
B18: 5T4 9-mer peptide 126 (peptide)
peptide: YVSFRNLTH
B19: 5T4 9-mer peptide 187 (peptide)
peptide: VLYLNRKGI
B20: 5T4 9-mer peptide 176 (peptide)
peptide: SLQTSYVFL
B21: 5T4 9-mer peptide 4 RGPAAGDGR (peptide)
peptide: RGPAAGDGR
notes: also called Peptide No 4
B22: 5T4 9-mer peptide 174 ILPPSLQTS (peptide)
peptide: ILPPSLQTS
notes: also called Peptide No 174
B23: 5T4 9-mer peptide 106 GLRRLELAS (peptide)
peptide: GLRRLELAS
B24: 5T4 9-mer peptide 145 VFLDNNPWV (peptide)
peptide: VFLDNNPWV
B25: 5T4 9-mer peptide 11 LALVLLGWV (peptide)
peptide: LALVLLGWV
notes: also called Peptide No 11
B26: 5T4 9-mer peptide 99 GMVVAALLA (peptide)
peptide: GMVVAALLA
notes: also called Peptide No 99
B27: 5T4 9-mer peptide 118 SLRHLDLSN (peptide)
peptide: SLRHLDLSN
B28: 5T4 9-mer peptide 77 PLADLSPFA (peptide)
peptide: PLADLSPFA
notes: also called Peptide No 77
B29: 5T4 9-mer peptide 101 (peptide)
peptide: AALLAGRAL
notes: also called AALLAGRAL
B30: 5T4 9-mer peptide 45 (peptide)
peptide: LPAYVRNLF
B31: 5T4 9-mer peptide 55 (peptide)
peptide: GAFARRPPL
B32: 5T4 9-mer peptide 58 (peptide)
peptide: PPLAELAAL
notes: also called PPLAELAAL
B33: 5T4 9-mer peptide 17 (peptide)
peptide: SPTSSASSF
B34: 5T4 9-mer peptide 8 (peptide)
peptide: RLRLARLAL
notes: also called RLRLARLAL
B35: 5T4 9-mer peptide 113 (peptide)
peptide: LPRDVLAQL
B36: 5T4 9-mer peptide 23 (peptide)
peptide: APFLASAVS
B37: 5T4 9-mer peptide 71 (peptide)
peptide: LPSLRQLDL
B38: 5T4 9-mer peptide 117 (peptide)
peptide: LPSLRHLDL
B39: 5T4 9-mer peptide 59 (peptide)
peptide: LAELAALNL
B40: 5T4 9-mer peptide 99 (peptide)
peptide: GMVVAALLA
B41: 5T4 9-mer peptide 65 (peptide)
peptide: RLDEVRAGA
B42: 5T4 9-mer peptide 49 (peptide)
peptide: FLTGNQLAV
B43: 5T4 9-mer peptide 77 (peptide)
peptide: PLADLSPFA
B44: 5T4 9-mer peptide 22 (peptide)
peptide: SSAPFLASA
B45: 5T4 9-mer peptide 90 (peptide)
peptide: ILNHIVPPE

For one assay, the target named is T1, MHC class I molecule B*0702 (biotin (bound via biotin to streptavidin-coated plates)).
T1 construct: Methods name B*0702 as the allele used; also called B7; HLA-B7
Description: iTopia affinity assay (ED50), peptide titration on plate-bound MHC. The protocol: (§1) The 9 mers were tested for Peptide Binding, Off Rate and Affinity using iTopia Epitope Discovery System in accordance with the manufacturer's instructions. Briefly, 96 well microtitre plates coated with MHC molecules representing different MHC alleles are used to identify candidate peptides. […] Determinations are performed in duplicate using an ELISA plate reader and included allele specific positive controls.
(§2) Dose-response curves of peptide binding to MHC were prepared by peptide titration to determine the ED50 measurement for each peptide. Values for the concentrations tested (in duplicate) were obtained as a percentage of the highest (9000×) concentration of the positive control peptide. A dose-response curve was generated using GraphPad Prism® curve fitting software, which automatically calculated the ED50 (in Molarity) for each peptide.
Regarding B1, the EC50 came out at 10 µM.

B2 registered a 50% effective concentration (EC50) of 10 µM.

B3 showed a concentration for a half-maximal effect (EC50) of 3 µM.

In turn, B4 came in with an EC50 of 5 µM.

Consider B5, for which it took 20 µM to reach a half-maximal effect (EC50).

With B6, the EC50 stood at 30 µM.

Take B7: the EC50 came to 20 µM.

In the case of B8, the concentration for a half-maximal effect (EC50) was 7 µM. This EC50 is about 2.9-fold lower than that of the molecule before.

As to B9, a half-maximal response (EC50) required 2 µM.

B10 had a 50% effective concentration (EC50) of 2 µM. This counts as single-digit micromolar.

Another assay addresses T2, MHC class I molecule A*0201 (biotin (bound via biotin to streptavidin-coated plates)).
T2 construct: also called A2; HLA-A2
The assay is described as above. The protocol:
as §1, §2
As to B1, the EC50 is 0.8 µM.

Consider B3, for which the midpoint of the response, the EC50, lay at 5 µM.

B4: the response was half-maximal at 20 µM (EC50).

The molecule B5 yielded an EC50 of 20 µM.

As to B6, the half-maximal effective concentration (EC50) worked out at 40 µM.

B7: the EC50 was 2 µM. Against the preceding molecule, the EC50 is about 20-fold lower.

On to B8, for which the concentration for a half-maximal effect (EC50) turned out to be 4 µM.

The target of another assay is T3, MHC class I molecule A*0101 (biotin (bound via biotin to streptavidin-coated plates)).
T3 construct: also called A1; HLA-A1
Described as above. The protocol:
as §1, §2
For the molecule B11, the EC50 was 20 µM. In other words, the double-digit micromolar range.

The next assay has as its target T4, MHC class I allele A*0301 monomer (human, biotinylated, bound to streptavidin-coated plate).
T4 construct: also called A3; HLA-A3
In words: iTopia, multiparametric iScore. In outline:
(§3)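 The iScore combines the binding, off-rate and affinity results into one overall binding-quality value for each 9-mer. These measurements were made by ELISA in duplicate on MHC-coated plates, with allele-specific positive controls.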
In the case of B12, the iScore came out at 0.

B13: the iScore worked out at 0.

B14: the iScore worked out at 0.

B15 had an iScore of 0.07.

In turn, B16 showed an iScore of 0.

B17 gave an iScore of 0.

With B18, the iScore was 0.086.

Regarding B19, the iScore was found to be 0.017.

Turning to B20, the iScore turned out to be 0.

The next assay deals with T5, MHC class I allele B*0702 monomer (human, biotinylated, bound to streptavidin-coated plate).
T5 construct: also called B7; HLA-B7
Description: iTopia, multiparametric iScore. In outline: as §3
Molecule B12 displayed an iScore of 0.242.

B13 registered an iScore of 0.067.

B14 displayed an iScore of 0.

The molecule B15 gave an iScore of 0.

For B16, the iScore was found to be 0.

On to B17, for which the iScore stood at 0.

Consider B18, for which the iScore was 0.21.

Consider B19, for which the iScore is 0.164.

B20 returned an iScore of 0.

The next assay concerns the target T6, MHC class I allele A*0201 monomer (human, biotinylated, bound to streptavidin-coated plate).
T6 construct: also called A2; HLA-A2
Description: iTopia, multiparametric iScore. In short, it runs like this:
as §3
Regarding B12, the iScore came out at 0.

Regarding B13, the iScore came to 0.425.

B14: the iScore is 0.821.

Molecule B16 registered an iScore of 0.606.

As to B17, the iScore worked out at 0.523.

As for B18, the iScore turned out to be 0.

As for B19, the iScore worked out at 0.095.

The molecule B20 had an iScore of 0.561.

A further assay addresses T7, MHC class I allele A*0101 monomer (human, biotinylated, bound to streptavidin-coated plate).
T7 construct: placeholder peptide and b2M removed, then reconstituted with test peptide and fresh b2M; also called A1; HLA-A1
In words: iTopia, multiparametric iScore. In short, it runs like this:
as §3
The molecule B12 showed an iScore of 0.

Molecule B13 gave an iScore of 0.

B14 yielded an iScore of 0.

B15: the iScore stood at 0.

As to B16, the iScore is 0.

B17 came in with an iScore of 0.

The molecule B18 came in with an iScore of 0.

In turn, B19 showed an iScore of 0.

B20 yielded an iScore of 0.

A further assay concerns the target T8, MHC class I molecule HLA-A*0201 (iTopia plate-bound monomer) (biotin (bound to streptavidin-coated plate)).
T8 construct: also called A2
Description: iTopia off-rate assay, 37 C; fit R^2 0.93. The protocol: as §1
A one-phase exponential decay curve, with a plateau given equal to 0, was generated using GraphPad Prism® software, which calculated the t1/2 and goodness-of-fit, as measured by r², for each peptide.
On to B21, for which the t½ half life came to 1.2 h.

Regarding B22, the t½ half life was 5 h.

Take B23: the t½ half life is 0.4 h.

B24: the t½ half life was 1.2 h.

With B25, the t½ half life was determined as 1.6 h.

On to B26, for which the t½ half life turned out to be 1.8 h.

In turn, B27 showed a t½ half life of 0.4 h.

Molecule B28 returned a t½ half life of 4.8 h.

A further assay deals with T5, MHC class I allele B*0702 monomer. Description: iTopia, multiparametric iScore. The source holds these as a separate data set. The protocol:
as §1
(§4) Finally, multiparametric analysis is performed on the results from these assays and an iScore is generated. The iScore represents a measure of the overall quality of peptide-MHC binding, enabling candidate peptides to be ranked in order of binding quality and allowing rational prioritisation of peptides for functional cellular follow-up studies.
Molecule B29 displayed an iScore of 0.238.

In the case of B12, the iScore came out at 0.242.

The molecule B30 displayed an iScore of 0.389.

With B31, the iScore was 0.359.

B32 yielded an iScore of 0.145.

In turn, B33 gave an iScore of 0.335.

For the molecule B34, the iScore was 1.

As to B18, the iScore was determined as 0.21.

B35 displayed an iScore of 0.305.

Molecule B36 gave an iScore of 0.176.

As for B19, the iScore was determined as 0.164.

Regarding B37, the iScore amounted to 0.454.

In turn, B38 returned an iScore of 0.445.

The next assay concerns the target T6, MHC class I allele A*0201 monomer. In words: iTopia, multiparametric iScore. This is another data set of the same source. The protocol: as §1, §4
Turning to B39, the iScore was 0.72.

For B13, the iScore was found to be 0.425.

Molecule B40 had an iScore of 0.384.

B41 displayed an iScore of 0.422.

B42 had an iScore of 0.791.

On to B14, for which the iScore is 0.821.

B15 returned an iScore of 1.9.

B43: the iScore turned out to be 0.556.

In the case of B16, the iScore was determined as 0.606.

In turn, B44 displayed an iScore of 0.389.

Take B45: the iScore was found to be 0.426.

Molecule B17 came in with an iScore of 0.523.

In turn, B20 had an iScore of 0.561.
